The text below walks through data of PMC10465538.

Read-outs that look alike come from different tables or passages of the source.

For experiment [1], the target named is MtbFabD3KR-Strep (malonyl CoA-acyl carrier protein transacylase variant that lacks secondary pupylation sites) (Mycobacterium tuberculosis) (UniProt P9WNG5).
The target in experiment [2] is MtbPanB-Strep (ketopantoate hydroxymethyltransferase) (Mycobacterium tuberculosis) (UniProt P9WIL7).
The target is the same in experiment [3]. The source holds these as a separate data set.

B1: CglPafA K106R, K172R, K302R (proteasome accessory factor A from Corynebacterium glutamicum) (enzyme)
chain: STVESALTRRIMGIETEYGLTFVDGDSKKLRPDEIARRMFRPIVEKYSSSNIFIPNGSRLYLDVGSHPEYATAECDNLTQLINFEKAGDVIADRMAVDAEESLAREDIAGQVYLFKNNVDSVGNSYGCHENYLVGRSMPLKALGKRLMPFLITRQLICGAGRIHHPNPLDRGESFPLGYCISQRSDHVWEGVSSATTRSRPIINTRDEPHADSHSYRRLHVIVGDANMAEPSIALKVGSTLLVLEMIEADFGLPSLELANDIASIREISRDATGSTLLSLKDGTTMTALQIQQVVFEHASRWLEQRPEPEFSGTSNTEMARVLDLWGRMLKAIESGDFSEVDTEIDWVIKKKLIDRFIQRGNLGLDDPKLAQVDLTYHDIRPGRGLFSVLQSRGMIKRWTTDEAILAAVDTAPDTTRAHLRGRILKAADTLGVPVTVDWMRHKVNRPEPQSVELGDPFSAVNSEVDQLIEYMTVHAESYRS
On to B1, for which the App. initial pupylation rate (in vitro pupylation of FabD, SDS-PAGE densitometry) in experiment [1] was 10.4 h⁻¹.

B2: PafA site 3 alanine double mutant (R442A, K444A) (enzyme)
chain: STVESALTRRIMGIETEYGLTFVDGDSKKLRPDEIARRMFRPIVEKYSSSNIFIPNGSRLYLDVGSHPEYATAECDNLTQLINFEKAGDVIADRMAVDAEESLAREDIAGQVYLFKNNVDSVGNSYGCHENYLVGRSMPLKALGKRLMPFLITRQLICGAGRIHHPNPLDRGESFPLGYCISQRSDHVWEGVSSATTRSRPIINTRDEPHADSHSYRRLHVIVGDANMAEPSIALKVGSTLLVLEMIEADFGLPSLELANDIASIREISRDATGSTLLSLKDGTTMTALQIQQVVFEHASRWLEQRPEPEFSGTSNTEMARVLDLWGRMLKAIESGDFSEVDTEIDWVIKKKLIDRFIQRGNLGLDDPKLAQVDLTYHDIRPGRGLFSVLQSRGMIKRWTTDEAILAAVDTAPDTTRAHLRGRILKAADTLGVPVTVDWMAHAVNRPEPQSVELGDPFSAVNSEVDQLIEYMTVHAESYRS
Take B2: in experiment [1], the App. initial pupylation rate (in vitro pupylation of FabD, SDS-PAGE densitometry) was 2.64 h⁻¹.

B3: PafA site 2 triple alanine variant (R137A/R207A/R218A) (enzyme)
chain: STVESALTRRIMGIETEYGLTFVDGDSKKLRPDEIARRMFRPIVEKYSSSNIFIPNGSRLYLDVGSHPEYATAECDNLTQLINFEKAGDVIADRMAVDAEESLAREDIAGQVYLFKNNVDSVGNSYGCHENYLVGASMPLKALGKRLMPFLITRQLICGAGRIHHPNPLDRGESFPLGYCISQRSDHVWEGVSSATTRSRPIINTADEPHADSHSYARLHVIVGDANMAEPSIALKVGSTLLVLEMIEADFGLPSLELANDIASIREISRDATGSTLLSLKDGTTMTALQIQQVVFEHASRWLEQRPEPEFSGTSNTEMARVLDLWGRMLKAIESGDFSEVDTEIDWVIKKKLIDRFIQRGNLGLDDPKLAQVDLTYHDIRPGRGLFSVLQSRGMIKRWTTDEAILAAVDTAPDTTRAHLRGRILKAADTLGVPVTVDWMRHKVNRPEPQSVELGDPFSAVNSEVDQLIEYMTVHAESYRS
In experiment [2], B3 gave an in vitro pupylation of PanB, reduction against PafA (gel densitometry) of 70 % reduction.

B4: PafA R137A, R218A (enzyme)
chain: STVESALTRRIMGIETEYGLTFVDGDSKKLRPDEIARRMFRPIVEKYSSSNIFIPNGSRLYLDVGSHPEYATAECDNLTQLINFEKAGDVIADRMAVDAEESLAREDIAGQVYLFKNNVDSVGNSYGCHENYLVGASMPLKALGKRLMPFLITRQLICGAGRIHHPNPLDRGESFPLGYCISQRSDHVWEGVSSATTRSRPIINTRDEPHADSHSYARLHVIVGDANMAEPSIALKVGSTLLVLEMIEADFGLPSLELANDIASIREISRDATGSTLLSLKDGTTMTALQIQQVVFEHASRWLEQRPEPEFSGTSNTEMARVLDLWGRMLKAIESGDFSEVDTEIDWVIKKKLIDRFIQRGNLGLDDPKLAQVDLTYHDIRPGRGLFSVLQSRGMIKRWTTDEAILAAVDTAPDTTRAHLRGRILKAADTLGVPVTVDWMRHKVNRPEPQSVELGDPFSAVNSEVDQLIEYMTVHAESYRS
B4 registered an App. initial pupylation rate (in vitro pupylation of FabD, SDS-PAGE densitometry) in experiment [1] of 0.17 h⁻¹.

B5: PafA R137A (enzyme)
chain: STVESALTRRIMGIETEYGLTFVDGDSKKLRPDEIARRMFRPIVEKYSSSNIFIPNGSRLYLDVGSHPEYATAECDNLTQLINFEKAGDVIADRMAVDAEESLAREDIAGQVYLFKNNVDSVGNSYGCHENYLVGASMPLKALGKRLMPFLITRQLICGAGRIHHPNPLDRGESFPLGYCISQRSDHVWEGVSSATTRSRPIINTRDEPHADSHSYRRLHVIVGDANMAEPSIALKVGSTLLVLEMIEADFGLPSLELANDIASIREISRDATGSTLLSLKDGTTMTALQIQQVVFEHASRWLEQRPEPEFSGTSNTEMARVLDLWGRMLKAIESGDFSEVDTEIDWVIKKKLIDRFIQRGNLGLDDPKLAQVDLTYHDIRPGRGLFSVLQSRGMIKRWTTDEAILAAVDTAPDTTRAHLRGRILKAADTLGVPVTVDWMRHKVNRPEPQSVELGDPFSAVNSEVDQLIEYMTVHAESYRS
B5 registered an App. initial pupylation rate (in vitro pupylation of FabD, SDS-PAGE densitometry) in experiment [1] of 3.1 h⁻¹.

B6: PafA R442A (enzyme)
chain: STVESALTRRIMGIETEYGLTFVDGDSKKLRPDEIARRMFRPIVEKYSSSNIFIPNGSRLYLDVGSHPEYATAECDNLTQLINFEKAGDVIADRMAVDAEESLAREDIAGQVYLFKNNVDSVGNSYGCHENYLVGRSMPLKALGKRLMPFLITRQLICGAGRIHHPNPLDRGESFPLGYCISQRSDHVWEGVSSATTRSRPIINTRDEPHADSHSYRRLHVIVGDANMAEPSIALKVGSTLLVLEMIEADFGLPSLELANDIASIREISRDATGSTLLSLKDGTTMTALQIQQVVFEHASRWLEQRPEPEFSGTSNTEMARVLDLWGRMLKAIESGDFSEVDTEIDWVIKKKLIDRFIQRGNLGLDDPKLAQVDLTYHDIRPGRGLFSVLQSRGMIKRWTTDEAILAAVDTAPDTTRAHLRGRILKAADTLGVPVTVDWMAHKVNRPEPQSVELGDPFSAVNSEVDQLIEYMTVHAESYRS
As to B6, the App. initial pupylation rate (in vitro pupylation of FabD, SDS-PAGE densitometry) in experiment [1] is 2.87 h⁻¹.

B7: PafA R207A (enzyme)
chain: STVESALTRRIMGIETEYGLTFVDGDSKKLRPDEIARRMFRPIVEKYSSSNIFIPNGSRLYLDVGSHPEYATAECDNLTQLINFEKAGDVIADRMAVDAEESLAREDIAGQVYLFKNNVDSVGNSYGCHENYLVGRSMPLKALGKRLMPFLITRQLICGAGRIHHPNPLDRGESFPLGYCISQRSDHVWEGVSSATTRSRPIINTADEPHADSHSYRRLHVIVGDANMAEPSIALKVGSTLLVLEMIEADFGLPSLELANDIASIREISRDATGSTLLSLKDGTTMTALQIQQVVFEHASRWLEQRPEPEFSGTSNTEMARVLDLWGRMLKAIESGDFSEVDTEIDWVIKKKLIDRFIQRGNLGLDDPKLAQVDLTYHDIRPGRGLFSVLQSRGMIKRWTTDEAILAAVDTAPDTTRAHLRGRILKAADTLGVPVTVDWMRHKVNRPEPQSVELGDPFSAVNSEVDQLIEYMTVHAESYRS
In turn, B7 gave an in vitro pupylation of PanB, reduction against PafA (gel densitometry) in experiment [3] of 50 % reduction.

B8: PafA R218A (enzyme)
chain: STVESALTRRIMGIETEYGLTFVDGDSKKLRPDEIARRMFRPIVEKYSSSNIFIPNGSRLYLDVGSHPEYATAECDNLTQLINFEKAGDVIADRMAVDAEESLAREDIAGQVYLFKNNVDSVGNSYGCHENYLVGRSMPLKALGKRLMPFLITRQLICGAGRIHHPNPLDRGESFPLGYCISQRSDHVWEGVSSATTRSRPIINTRDEPHADSHSYARLHVIVGDANMAEPSIALKVGSTLLVLEMIEADFGLPSLELANDIASIREISRDATGSTLLSLKDGTTMTALQIQQVVFEHASRWLEQRPEPEFSGTSNTEMARVLDLWGRMLKAIESGDFSEVDTEIDWVIKKKLIDRFIQRGNLGLDDPKLAQVDLTYHDIRPGRGLFSVLQSRGMIKRWTTDEAILAAVDTAPDTTRAHLRGRILKAADTLGVPVTVDWMRHKVNRPEPQSVELGDPFSAVNSEVDQLIEYMTVHAESYRS
Regarding B8, the App. initial pupylation rate (in vitro pupylation of FabD, SDS-PAGE densitometry) in experiment [1] was 5.05 h⁻¹.

B9: PafA K444A (enzyme)
chain: STVESALTRRIMGIETEYGLTFVDGDSKKLRPDEIARRMFRPIVEKYSSSNIFIPNGSRLYLDVGSHPEYATAECDNLTQLINFEKAGDVIADRMAVDAEESLAREDIAGQVYLFKNNVDSVGNSYGCHENYLVGRSMPLKALGKRLMPFLITRQLICGAGRIHHPNPLDRGESFPLGYCISQRSDHVWEGVSSATTRSRPIINTRDEPHADSHSYRRLHVIVGDANMAEPSIALKVGSTLLVLEMIEADFGLPSLELANDIASIREISRDATGSTLLSLKDGTTMTALQIQQVVFEHASRWLEQRPEPEFSGTSNTEMARVLDLWGRMLKAIESGDFSEVDTEIDWVIKKKLIDRFIQRGNLGLDDPKLAQVDLTYHDIRPGRGLFSVLQSRGMIKRWTTDEAILAAVDTAPDTTRAHLRGRILKAADTLGVPVTVDWMRHAVNRPEPQSVELGDPFSAVNSEVDQLIEYMTVHAESYRS
As for B9, the App. initial pupylation rate (in vitro pupylation of FabD, SDS-PAGE densitometry) in experiment [1] was 2.65 h⁻¹.
